Results taken from patent US7704703B2, “Arf and Hdm2 interaction domains and the methods of use thereof” (St. Jude Children's Research Hospital, Inc., priority 2002, dated 2010).
“Also recorded” adds a separate entry of the source. Each block holds one substance with its values, some of them ahead of it.

Experiments:
[1] = biological target: T1, Hdm2 210-275 (Homo sapiens, UniProt Q00987); assay: CD-based binding assay, induction of β-strand secondary structure with Hdm2 210-275
T1 construct: poly-His (thrombin cleavable, pET28a) (cleaved yes); made in house; host or cells: E. coli BL21(DE3)
T1 sequence (Q00987 210-275): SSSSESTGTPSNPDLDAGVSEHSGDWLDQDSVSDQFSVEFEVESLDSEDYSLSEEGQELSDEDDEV
Procedure: Circular Dichroism. Spectra were recorded at 25° C. using an Aviv Model 62A DS circular dichroism spectropolarimeter (Aviv Instruments, Inc.) equipped with a thermoelectric temperature control unit. All samples were prepared in 10 mM Tris-HCl, pH 7.0 at 0.02-0.2 mM as determined by amino acid analysis. Spectra were recorded using 1 mm quartz cuvettes and reported spectra are the average of 10 scans over the range […]. Melting experiments were recorded in 10 mm quartz cuvettes with active stirring. The signal at 216 nm (β strand minimum) was used to monitor structural changes and the signal was averaged over 15 sec. The sample temperature was increased in 1° C. steps.
β-strand secondary structure forms when Arf and Hdm2 interact. […] This structural transition is induced when mArfN37 is added to an Hdm2 fragment and when an Hdm2 fragment is added to mArfN37. […] In contrast, the uncomplexed species elute at times consistent with monodisperse, conformationally extended polypeptides. Second, NMR resonances for ^15N-mArfN37 or ^15N-Hdm2 210-304 (and ^15N-Hdm2 210-275) are broadened beyond detection when an unlabeled form of the appropriate binding partner is added to the solution. At mArfN37:Hdm2 210-304 (or mArfN37:Hdm2 210-275) molar ratios that produce maximal β-strand secondary structure based on ellipticity at 200 nm using CD, resonances cannot be observed for the isotope-labeled component of Arf/Hdm2 mixtures. Further, the NMR spectra are consistent with slow exchange between the free and bound states.
Characterization of Arf Hdm2 assemblies. As discussed above, the addition of mArfN37 to Hdm2 210-304 results in the formation of supramolecular assemblies comprised of β-strands. Stepwise addition of sub-stoichiometric amounts of mArfN37 to Hdm2 210-304 increased β-strand secondary structure content as judged by the change in ellipticity at 200 nm using CD. […] The binding of mArfN37 to Hdm2 210-304, as monitored in this way, is saturable. Similar results were obtained when mArfN37 was mixed with the shorter fragment of Hdm2, Hdm2 210-275. Further, saturable binding is also observed when the Hdm2 fragments were added to an excess of mArfN37. These findings indicate that there are a limited number of binding sites for mArfN37 within Hdm2 210-304 and that discreet structures (containing β-strands) form when mArfN37 and Hdm2 210-304 (or 210-275) are mixed. […] Similar behavior is observed when mArfN37 binds Hdm2 210-275.

[2] = biological target: T2, mArfN37 (Mus musculus, UniProt Q64364); assay: Surface plasmon resonance: Hdm2 fragments and peptides binding to immobilized His-tagged mArfN37
T2 construct: mouse p19^Arf corresponding to residues 1-37 (mArfN37); made in house; host or cells: E. coli BL21(DE3) (purified 'in a similar manner' to the Hdm2 fragments)
T2 sequence (Q64364 1-37 limits assumed): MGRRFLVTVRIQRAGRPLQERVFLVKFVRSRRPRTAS
Procedure: Surface Plasmon Resonance. Binding studies were performed using a Biacore 3000 surface plasmon resonance (SPR) instrument (Biacore, Inc.). A Tetra-His™ Antibody (Qiagen, Inc.; Cat. #34670) was covalently attached to a carboxymethylated gold surface (C-1 chip; Biacore, Inc.). The carboxymethyl groups on the surface were activated with N-ethyl-N′-(3-dimethylaminopropyl) carbodiimide (EDC) and N-hydroxysuccinimide (NHS) and the antibody was attached at pH 7.4 in 20 mM sodium phosphate buffer, 150 mM NaCl (PBS). Reactive sites remaining on the surface were blocked by reaction with ethanolamine. […] Binding was measured by flowing the non-His-tagged analyte through the reference and ligand-containing flow cells in sequence. […] Changes in the SPR response due to solvent differences and the injection process were monitored by injection of HBS-N buffer alone. […]
Small segments of Arf and Hdm2 participate in Arf/Hdm2 interactions. […] However, because mArfN37 is a relatively small polypeptide, it was determined whether it could bind a correspondingly small segment of Hdm2. To test this hypothesis and to monitor Arf/Hdm2 binding reactions quantitatively, Hdm2 constructs were prepared spanning amino acids 210-304 of SEQ ID NO:8 and 210-275 of SEQ ID NO:8 and then it was determined whether they could bind mArfN37 using surface plasmon resonance (SPR). […]

[3] = biological target: T3, GFP-p19^Arf (Mus musculus, UniProt Q64364); assay: Microinjection and live cell imaging of Texas Red labeled Hdm2 constructs in NIH 3T3 cells lacking Arf; format: cell-based; settings: for localization after nuclear microinjection in the presence of GFP-p19^Arf: transfected with GFP-p19^Arf
T3 construct: expressed in transfected cells; host or cells: NIH 3T3 Arf-/- cells
T3 sequence (Q64364 1-169): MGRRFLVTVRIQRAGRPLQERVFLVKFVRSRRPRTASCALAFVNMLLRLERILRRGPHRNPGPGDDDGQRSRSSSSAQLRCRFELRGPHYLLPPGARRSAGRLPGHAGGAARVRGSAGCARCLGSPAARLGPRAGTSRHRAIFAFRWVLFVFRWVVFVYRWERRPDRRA
Procedure: Fluorescent labeling. Proteins for fluorescence microimaging studies were covalently modified using an amine-reactive, sulfosuccinimidyl ester of TEXAS RED® (C31H29S2N2O6Cl1) (Molecular Probes, Inc., Cat. # C-1171). In brief, purified Hdm2-derived proteins were dialyzed into 100 mM sodium bicarbonate buffer, pH 8.3 at 2-4 mg/ml. The Texas Red™ dye was dissolved in dimethylsulfoxide at 10 mg/ml. Protein and dye 3:1 (vol:vol) were reacted for 1 hour at room temperature followed by purification using size-exclusion chromatography (NAP 5 G-25 columns, Amersham Pharmacia Biotech, Inc.). Labeled protein bands migrated more slowly than unlabeled protein in SDS-polyacrylamide gels consistent with the covalent attachment of dye.
Cell culture and microinjection. NIH 3T3 Arf^−/− cells passage 10-15 were cultured in Dulbecco's modified Eagle's medium (Dulbecco's modified Eagle's medium (DMEM); Gibco-Invitrogen, Inc.), 10% fetal bovine serum (FBS) at 37° C., 7% CO2. […] GFP-Arf positive cells were then located and co-injected with TEXAS RED® (C31H29S2N2O6C1 labeled Hdm2 polypeptides (2 mg/ml in 20 mM Tris-HCl, 100 mM NaCl, pH 7.0) using a Micromanipulator 5171/Transjector 5246 (Eppendorf, AG) in media supplemented with 10 mM HEPES, pH 7.2 to buffer cell media during injection and imaging. Representative cells were imaged over time. An Axiovert 135 TV inverted fluorescence microscope with an automated stage controller (Carl Zeiss, Inc.) and circulating water bath heater (Fisher) was used for both microinjection and imaging. Images were acquired with a Zeiss 40×NA=1.30 oil objective and MicroMax CCD camera (Princeton Instruments Inc.) operated with MetaMorph Version 4.01 imaging software. […]
TEXAS RED® (C31H29S2N2O6Cl1) labeled Hdm2 deletion constructs containing residues 210-275, 210-304, 277-350 and 277-491 were individually injected into cells in the absence or presence of the GFP-p19^Arf fusion protein. […] The use of live cell imaging also allowed the kinetics of localization to be monitored. […]

Substance: mouse A2 (16-30): peptide corresponding to the second mouse Arf motif, residues 16-30 (RPLQERVFLVKFVRS)
- induction of β-strand secondary structure/assembly when mixed with Hdm2 210-275 (CD) [1]: fail to induce β-strand assembly

Substance: Hdm2 277-491: Texas Red labeled Hdm2 deletion construct containing residues 277-491
- localization after nuclear microinjection in the presence of GFP-p19^Arf [3]: nucleolar localization

Substance: human A2 (16-30): peptide containing the second human Arf motif, residues 16-30 (GPPRVRVFVVHIPRL)
- induction of β-strand secondary structure/assembly when mixed with Hdm2 210-275 (CD) [1]: fail to induce β-strand assembly

Second part, led by results:

- relative affinity of Hdm2 synthetic peptides for mArfN37 (SPR) ([2]; 15 amino acid peptides of the central region of Hdm2): modest affinity
Substance: peptide containing residues 290-304: short synthetic Hdm2 peptide, residues 290-304 of SEQ ID NO:8 (SFEEDPEISLADYWK; listed as Homo sapiens)

- induction of β-strand secondary structure/assembly when mixed with Hdm2 210-275 (CD) [1]: interaction
Substance: mouse A1 (1-14): peptide corresponding to the first mouse Arf motif, residues 1-14 (MGRRFLVTVRIQRA)

- induction of β-strand secondary structure/assembly when mixed with Hdm2 210-275 (CD) [1]: interaction
Substance: MVRRFLVTLRIRRA (listed as Homo sapiens) [human A1 (1-14), peptide of the first Arf motif of human p14^Arf, residues 1-14]

- binding of Hdm2 fragment to His-tagged mArfN37 immobilized on SPR biosensor surface ([2]; Hdm2 protein fragments as analyte, no binding to control surface): bind tightly
- localization after nuclear microinjection in the absence of Arf ([3]; no GFP-p19^Arf): evenly dispersed in the nucleoplasm
Substance: Hdm2 210-304: Arf-binding domain of Hdm2, amino acids 210-304 of SEQ ID NO:8
- localization after nuclear microinjection in the presence of GFP-p19^Arf [3]: co-localized within nucleoli; also recorded: nucleolar localization
